Data taken from patent publication US7479480B2, “Peptides that promote lipid efflux” (Lipid Sciences, Inc., priority 2006, dated 2009).
Ends that are not written are not given here.

How the values were obtained:
[1] = target: T1, SR-B1 (Rattus norvegicus, UniProt P97943); experiment: SR-BI mediated cholesterol efflux; format: cell-based; conditions: for SR-BI Mediated Efflux % Per 4 h: minus blank; for cholesterol efflux from the Fu5AH cells (SRB1 pathway): result in words
T1 construct: endogenous in cells; host or cells: Fu5AH rat hepatoma cells
T1 sequence (P97943 1-509): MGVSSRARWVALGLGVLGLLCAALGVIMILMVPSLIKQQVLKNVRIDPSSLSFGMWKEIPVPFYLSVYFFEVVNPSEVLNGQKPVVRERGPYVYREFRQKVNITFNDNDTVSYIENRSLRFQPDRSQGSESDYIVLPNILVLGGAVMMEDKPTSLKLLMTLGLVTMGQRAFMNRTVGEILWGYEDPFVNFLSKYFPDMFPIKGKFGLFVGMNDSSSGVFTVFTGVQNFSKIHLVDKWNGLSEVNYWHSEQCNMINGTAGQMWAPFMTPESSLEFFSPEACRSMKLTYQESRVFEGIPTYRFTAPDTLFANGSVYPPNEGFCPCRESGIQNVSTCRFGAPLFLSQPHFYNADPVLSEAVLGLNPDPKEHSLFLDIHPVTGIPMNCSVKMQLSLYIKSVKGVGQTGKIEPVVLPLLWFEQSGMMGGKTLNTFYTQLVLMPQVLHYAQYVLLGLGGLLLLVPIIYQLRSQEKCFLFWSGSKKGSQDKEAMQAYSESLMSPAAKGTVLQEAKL
Text: (§1) The methods employed in this study have been described in U.S. Pat. Nos. 7,029,863, 7,060,452, U.S. Patent Application Publication No. 2005/0191715, and in Moya et al., Arteriosclerosis & Thrombosis 1994:14:1056-1065 and Liu et al., J. Biol. Chem., 2003:278(44), 42976-42984. SR-B1 mediated cholesterol efflux was examined in FU5AH rat hepatoma cells and ABCA1 mediated cholesterol efflux was examined in J774 mouse macrophage cells as described in these references.
(§2) J774 macrophages and Fu5AH […] in culture were used to determine the specificity of SEQ ID NO: 602 to efflux cholesterol by the ABCA-I or SRBI pathways using the methods of de la Llera Moya, M., V., et al. “A cell culture system for screening human serum for ability to promote cellular cholesterol efflux. Relations between serum components and efflux, esterification, and transfer.” Arterioscler. Thromb. 14: 1056-1065 (1994). Anti-inflammatory properties were evaluated by determination of inhibition of expression of activated CD11B human monocytes and suppression of cytokine-induced vascular cell adhesion molecule-1, V-CAM, expression in human coronary artery endothelial cells (HCAECs).

[2] = target: T2, ABCA1 (Mus musculus, UniProt P41233); experiment: ABCA1 mediated cholesterol efflux; format: cell-based; parameters: +ABCA1 Cells / −ABCA1 Cells: unit not given here; conditions: for cholesterol efflux via the ABCA-I pathway: Example 17, J774 macrophages; for +ABCA1 Cells / −ABCA1 Cells / ABCA1 Mediated Efflux % Per 4 h: minus blank; for dose dependence of cholesterol efflux from cells containing the ABCA1 pathway (FIG. 3): range of 5 ug/ml to 30 ug/ml; for efflux of cholesterol from J774 macrophage cells (ABCA1 pathway): result in words
T2 construct: endogenous in cells; host or cells: J774 mouse macrophage cells
T2 sequence (P41233 whole entry): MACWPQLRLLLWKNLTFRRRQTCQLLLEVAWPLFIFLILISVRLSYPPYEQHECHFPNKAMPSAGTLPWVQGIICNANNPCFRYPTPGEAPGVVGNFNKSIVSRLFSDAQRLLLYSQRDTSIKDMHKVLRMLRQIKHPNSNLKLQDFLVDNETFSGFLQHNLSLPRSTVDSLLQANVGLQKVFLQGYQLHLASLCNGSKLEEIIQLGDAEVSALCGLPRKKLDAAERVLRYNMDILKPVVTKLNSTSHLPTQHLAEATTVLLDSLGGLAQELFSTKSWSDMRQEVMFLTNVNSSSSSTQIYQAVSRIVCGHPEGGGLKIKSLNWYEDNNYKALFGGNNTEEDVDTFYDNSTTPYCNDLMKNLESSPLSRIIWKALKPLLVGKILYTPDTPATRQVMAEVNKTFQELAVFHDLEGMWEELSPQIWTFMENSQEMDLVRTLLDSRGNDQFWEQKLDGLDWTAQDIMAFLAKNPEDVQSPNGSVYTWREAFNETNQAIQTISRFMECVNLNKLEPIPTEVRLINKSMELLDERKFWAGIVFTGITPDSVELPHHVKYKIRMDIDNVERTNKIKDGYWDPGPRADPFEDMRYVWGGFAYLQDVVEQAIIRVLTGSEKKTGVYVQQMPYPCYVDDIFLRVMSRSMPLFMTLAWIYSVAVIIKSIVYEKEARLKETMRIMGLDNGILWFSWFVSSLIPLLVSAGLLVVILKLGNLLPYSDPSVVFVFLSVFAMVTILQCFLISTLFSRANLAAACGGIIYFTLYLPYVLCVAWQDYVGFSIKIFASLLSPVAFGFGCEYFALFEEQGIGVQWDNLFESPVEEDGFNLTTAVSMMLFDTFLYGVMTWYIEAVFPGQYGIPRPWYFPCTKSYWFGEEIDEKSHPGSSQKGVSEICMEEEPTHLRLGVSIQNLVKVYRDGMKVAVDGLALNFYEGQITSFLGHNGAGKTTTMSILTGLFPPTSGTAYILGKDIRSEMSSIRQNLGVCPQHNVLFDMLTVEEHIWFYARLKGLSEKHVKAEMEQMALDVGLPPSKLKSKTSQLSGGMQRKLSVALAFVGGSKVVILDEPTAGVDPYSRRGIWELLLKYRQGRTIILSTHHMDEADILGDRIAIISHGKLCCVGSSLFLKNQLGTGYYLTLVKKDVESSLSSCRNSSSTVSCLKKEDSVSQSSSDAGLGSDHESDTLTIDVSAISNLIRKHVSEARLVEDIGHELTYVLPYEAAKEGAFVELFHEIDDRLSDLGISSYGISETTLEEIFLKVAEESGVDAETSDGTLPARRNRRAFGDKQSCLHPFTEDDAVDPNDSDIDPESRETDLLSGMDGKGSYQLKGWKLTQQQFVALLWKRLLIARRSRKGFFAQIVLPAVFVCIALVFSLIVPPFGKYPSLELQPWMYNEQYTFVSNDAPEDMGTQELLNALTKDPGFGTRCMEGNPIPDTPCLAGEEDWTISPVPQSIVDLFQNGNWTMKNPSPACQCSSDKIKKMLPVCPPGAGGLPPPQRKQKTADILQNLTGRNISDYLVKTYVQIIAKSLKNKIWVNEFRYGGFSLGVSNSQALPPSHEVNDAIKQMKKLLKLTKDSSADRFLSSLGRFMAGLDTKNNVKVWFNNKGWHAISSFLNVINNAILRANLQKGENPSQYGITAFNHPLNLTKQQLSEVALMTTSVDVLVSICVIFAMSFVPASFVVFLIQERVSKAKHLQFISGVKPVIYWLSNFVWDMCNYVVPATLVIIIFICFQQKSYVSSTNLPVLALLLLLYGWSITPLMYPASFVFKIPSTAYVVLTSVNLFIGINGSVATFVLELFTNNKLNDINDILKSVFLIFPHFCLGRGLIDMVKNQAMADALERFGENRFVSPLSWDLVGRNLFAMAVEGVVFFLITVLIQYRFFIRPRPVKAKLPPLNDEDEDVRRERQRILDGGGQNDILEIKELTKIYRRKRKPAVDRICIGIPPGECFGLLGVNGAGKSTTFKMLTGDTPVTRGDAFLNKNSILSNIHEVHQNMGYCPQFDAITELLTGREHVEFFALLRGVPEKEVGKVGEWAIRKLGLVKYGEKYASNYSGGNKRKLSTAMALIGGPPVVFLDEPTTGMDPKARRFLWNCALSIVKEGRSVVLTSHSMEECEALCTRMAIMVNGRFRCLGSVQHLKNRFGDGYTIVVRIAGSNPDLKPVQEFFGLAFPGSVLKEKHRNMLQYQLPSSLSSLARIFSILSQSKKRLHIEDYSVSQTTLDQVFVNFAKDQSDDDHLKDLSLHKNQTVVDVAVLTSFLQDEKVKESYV
Text: as §1, §2

[3] = tested on: CD11b; experiment: CD11b expression in stimulated monocytes by flow cytometry; format: cell-based, human; conditions: for PMA-induced CD11b expression in human monocytes: 20 μg/ml, PMA 1 μmol/L, FIG. 2
Method: Monocyte Isolation Peripheral whole blood (PWB) was drawn from healthy consenting individuals into syringes containing sodium citrate (final concentration—19.2 mM). Resting human monocytes were isolated from PWB by density centrifugation with Lymphoprep (Axis Shield). Mononuclear cells (MNCs) were collected and monocytes were further separated to purity using the Dynal negative isolation kit (Invitrogen). Monocytes were resuspended in phosphate buffered saline (PBS) and cell number was determined counting cell suspension on an automated hematology analyzer (Sysmex, KX-21N, USA).
Flow Cytometry 100 μL of monocytes were stimulated with either 1 μmol/L phorbol-myristate-acetate (PMA) or 1 μg/ml lipopolysaccharide (LPS) (Sigma, Australia) in the presence or absence of apoA-1 (20 μg/ml), or 20 μg/ml of the test peptide SEQ ID NO: 602 (Ac-[…]NH2), each tested separately. The cells were incubated with the FITC conjugated antibody to either the active epitope of CD11b (eBiosciences, USA, Clone CBRM1/5) or total CD11b (Serotec, USA, Clone ICRF44) for 15 min at 37° C. Cells were then fixed with 4% para-formaldehyde. Samples were controlled for by using the appropriately matched isotype matched negative control (FITC-anti-mouse IgG) (Serotec, USA, Clone W3/25). CD11b expression was measured by flow cytometry using FACS Calibur (Becton Dickinson). Analysis was conducted using the Cell Quest Pro software.
Statistical Analysis Values are presented as the mean±SD or percentage of control±SD. FACS results were analyzed for statistical significance using one-way ANOVA followed by Bonferroni post-hoc test. Significance was accepted at P<0.05.
as §2

[4] = tested on: vascular cell adhesion molecule-1; experiment: Cytokine-induced V-CAM expression in human coronary artery endothelial cells; format: cell-based; conditions: initial data; p<0.05
Method: as §2

[5] = tested on: ApoE knockout and LDL receptor knockout mice; experiment: Aortic atherosclerosis in ApoE and LDL receptor knockout mice (Example 14); format: in vivo, mouse; conditions: 30 mg/kg ip three times per week, 4-5 or 8-10 weeks
Method: The mice receive 3 injections per week for either 4-6 or 8-10 weeks. After the completion of the injection, the amount of hardening of the arteries or atherosclerosis is determined in the control injected animals and peptide injected animals to determine if the injections of the synthetic peptide decreased development of atherosclerosis.
For infusion studies B and C, mice are injected ip with either placebo or a synthetic peptide of the present invention (30 mg/kg) three times per week for either 4 to 5 weeks (Infusion Study B) or 8 to 10 weeks (Infusion Study C). Blood for lipid and lipoprotein analyses is obtained at the beginning of the study (day 0) and every two weeks after placebo/peptide injection and at the completion of the study. At the completion of the study (4 to 5 weeks for Infusion Study B and 8 to 10 weeks for Infusion Study C), the animals are sacrificed, organs harvested for analyses of cholesterol content and for aortic atherosclerosis.
No more than 300 ul blood every two weeks is obtained from each mouse. • 4) At the end of Infusion Study B and C all mice are sacrificed by cervical dislocation following isoflurane anesthesia and organs are harvested for analyses of cholesterol as well as aortic atherosclerosis. Before intraperitoneal injections, brief inhaled analgesia is obtained by isoflurane utilizing the E-Z Rodent Anesthesia System in the procedure room. […]

[6] = tested on: HeLa cells stably transfected with human ABCA1 cDNA; experiment: Cholesterol and phospholipid efflux from ABCA1 cells; format: cell-based
Method: HeLa cells stably transfected with human ABCA1 cDNA (ABCA1 cells) and HeLa cells transfected with only a hygromycin-resistant control plasmid (control cells) are produced and grown in α-modified Eagle's medium (aMEM) plus 10% fetal calf serum, as described by Remaley et al. (Biochem. Biophys. Res. Commun. 280:818-823, 2001). […] Thromb. Vasc. Biol. 17:1813-1821, 1997). Percentage efflux is calculated after subtracting the radioactive counts in the blank media (aMEM plus 1 mg/ml of BSA), and expressed as the percent of total radioactive counts removed from the cells during the efflux period.
ABCA1 cells are used to assess the ability of apoA-I and synthetic peptides to efflux lipid from cells. […] The peptides of the present invention efflux approximately 2- to 4-fold more cholesterol and phospholipid from ABCA1 cells than from control cells. Both the peptides of the present invention and apoA-I began to show saturation for lipid efflux at approximately the same protein concentration of 10 μg/ml. The peptides of the present invention remove more cholesterol and phospholipids from control cells than apoA-I.
Cholesterol efflux from ABCA1 cells to apoA-I is first detectable after 2 hours and increases throughout the 30 hour efflux period. […]

[7] = tested on: HeLa cells transfected with only a hygromycin-resistant control plasmid; experiment: Cholesterol and phospholipid efflux from control cells; format: cell-based, human; conditions: result in words
Method: HeLa cells stably transfected with human ABCA1 cDNA (ABCA1 cells) and HeLa cells transfected with only a hygromycin-resistant control plasmid (control cells) are produced and grown in α-modified Eagle's medium (aMEM) plus 10% fetal calf serum, as described by Remaley et al. (Biochem. Biophys. Res. Commun. 280:818-823, 2001). Cholesterol and phospholipid efflux is performed for 18 hours on noncholesterol-loaded cells radiolabeled with either cholesterol or choline (Remaley et al., Arterioscler. Thromb. Vasc. Biol. 17:1813-1821, 1997). Percentage efflux is calculated after subtracting the radioactive counts in the blank media (aMEM plus 1 mg/ml of BSA), and expressed as the percent of total radioactive counts removed from the cells during the efflux period.
ABCA1 cells are used to assess the ability of apoA-I and synthetic peptides to efflux lipid from cells. […] The peptides of the present invention efflux approximately 2- to 4-fold more cholesterol and phospholipid from ABCA1 cells than from control cells. Both the peptides of the present invention and apoA-I began to show saturation for lipid efflux at approximately the same protein concentration of 10 μg/ml. The peptides of the present invention remove more cholesterol and phospholipids from control cells than apoA-I. […]

[8] = FU5AH rat hepatoma cells, peptides at 30 μg/ml
[9] = J774 cells, peptides at 30 μg/ml
[10] = J774 cells, peptides at 30 μg/ml, listed as 5
[11] = J774 mouse macrophage cells, peptides at 30 μg/ml
[12] = J774 cells, peptides at 30 μg/ml, listed as 3
[13] = controls: 2% human serum pool, Apo A-I @ 20 μg/ml

Row | Substance | SR-BI Mediated Efflux % Per 4 h [1, 8] [% Per 4 h] | cholesterol efflux from the Fu5AH cells (SRB1 pathway) [1] | cholesterol efflux via the ABCA-I pathway [2] | +ABCA1 Cells [2, 9] | −ABCA1 Cells [2, 9] | ABCA1 Mediated Efflux % Per 4 h [2, 11] [% Per 4 h] | dose dependence of cholesterol efflux from cells containing the ABCA1 pathway (FIG. 3) [2] | efflux of cholesterol from J774 macrophage cells (ABCA1 pathway) [2] | PMA-induced CD11b expression in human monocytes [3] | aortic atherosclerosis compared to controls [5] | other results
1 | Ac-Ser Pro Leu Leu Glu Ser Ala Lys Val Ser Ala Leu Ser Ala Leu Glu Glu Ala Thr Lys Lys Lys Leu Ser Pro Leu Leu Glu Ser Phe Lys Val Ser Phe Leu Ser Ala Leu Glu Glu Tyr Thr Lys Lys Leu Asn Thr Gln-NH2 (Ac-SPLLESAKVSALSALEEATKKKLSPLLESFKVSFLSALEEYTKKLNTQ-NH2) [Peptide 1] | 0.15 | negligible or no effect | 15.34%+2.57 | 20.338 ± 0.136 | 1.624 ± 0.126 | 18.71 | dose dependent stimulation | stimulated efflux of cholesterol | decrease | decrease aortic atherosclerosis | SRB-1 pathway activity (cholesterol efflux) ([1]; Example 17, Fu5AH cells): no SRB-1 pathway activity; SR-BI Mediated Efflux % Per 4 h ([1]; FU5AH rat hepatoma cells, peptides at 30 μg/ml, listed as 5): 0.25 % Per 4 h; +ABCA1 Cells [2, 10]: 15.718 ± 0.123; −ABCA1 Cells [2, 10]: 1.215 ± 0.288; ABCA1 Mediated Efflux % Per 4 h ([2]; J774 mouse macrophage cells, peptides at 30 μg/ml, listed as 5): 14.50 % Per 4 h; PMA-induced CD11b expression in human monocytes ([3]; listed as SEQ ID NO: 602): significantly reduced; Inhibition of expression of CD11B on human monocytes ([3]; Example 17, p=<0.01, comparable to apo A-I): statistically significant; V-CAM-1 mRNA levels in HCAECs [4]: decreases
2 | SPLLESAKVSALSALEEATKKKLSPLLESFKVSFLSALEEYTKKLNTQ [Peptide 4] | 0.10 | negligible or no effect | – | 12.420 ± 1.019 | 1.224 ± 0.121 | 11.20 | dose dependent stimulation | stimulated efflux of cholesterol | – | decrease aortic atherosclerosis | –
3 | Ser Pro Leu Ser Asp Glu Lcu Arg Gln Arg Lcu Ala Ala Arg Lcu Glu Ala Leu Lys Glu Asn Lys Leu Ser Pro Leu Leu Glu Ser Phe Lys Val Ser Phe Leu Ser Ala Leu Glu Glu Tyr Thr Lys Lys Leu Asn Thr Gln (SPLSDELRQRLAARLEALKENKLSPLLESFKVSFLSALEEYTKKLNTQ) [Peptide 2] | 0.16 | negligible or no effect | – | 14.283 ± 0.545 | 1.205 ± 0.211 | 13.08 | dose dependent stimulation | stimulated efflux of cholesterol | – | – | +ABCA1 Cells [2, 12]: 13.447 ± 0.549; −ABCA1 Cells [2, 12]: 1.306 ± 0.261; ABCA1 Mediated Efflux % Per 4 h ([2]; J774 mouse macrophage cells, peptides at 30 μg/ml, listed as 3): 12.14 % Per 4 h
4 | apolipoprotein A-I [Apo A-I] | – | – | 15.99%+2.07 | – | – | – | – | – | decrease | – | SR-BI Mediated Efflux % Per 4 h [1, 13]: 0.26 % Per 4 h; +ABCA1 Cells [2, 13]: 20.682 ± 0.724; ABCA1 Mediated Efflux % Per 4 h [2, 13]: 18.97 % Per 4 h; −ABCA1 Cells [2, 13]: 1.713 ± 0.409; PMA-induced CD11b expression in human monocytes ([3]; listed as ApoA1): significantly reduced; protein concentration at which lipid efflux begins to show saturation [6]: ~10 µg/mL; time at which cholesterol efflux from ABCA1 cells is first detectable ([6]; 30 hour efflux period): 2 h; cholesterol efflux from control cells (time course) [7]: no significant increase above background
